Results: patent US20100086552A1 (VALTION TEKNILLINEN TUTKIMUSKESKUS, published 2010)
Changes are numbered by the printed parent chain.

T1: native bovine milk β-lactoglobulin (nBLG, Sigma) (bovine, UniProt P02754 17-178, biotinylated where immobilised on streptavidin wells or chips; the soluble competitor and the crystallised protein are not biotinylated)
T1 construct: also called native BLG; β-lactoglobulin AB dimer
T1 sequence: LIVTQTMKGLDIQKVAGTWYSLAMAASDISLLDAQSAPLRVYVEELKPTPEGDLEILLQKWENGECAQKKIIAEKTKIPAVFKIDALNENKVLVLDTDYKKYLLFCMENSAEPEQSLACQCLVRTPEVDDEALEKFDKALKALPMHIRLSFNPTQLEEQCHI

T2: rBLG-His6 T18Y (bovine, UniProt P02754 17-178, biotinylated with Sulfo-NHS-LC-biotin (2 mol biotin : 1 mol protein) for immobilisation)
T2 chain: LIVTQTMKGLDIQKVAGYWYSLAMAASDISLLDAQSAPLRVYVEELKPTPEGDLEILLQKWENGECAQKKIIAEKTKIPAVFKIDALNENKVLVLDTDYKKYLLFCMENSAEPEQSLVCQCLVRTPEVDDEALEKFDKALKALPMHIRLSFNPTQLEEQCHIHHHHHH

T3: rBLG-His6 T18Y/E45Y/L57Y (bovine, UniProt P02754 17-178, biotinylated with Sulfo-NHS-LC-biotin (2 mol biotin : 1 mol protein) for immobilisation)
T3 construct: also called Triple mutant; Triple
T3 chain: T2 chain with E45Y, L57Y

T4: rBLG-His6 (recombinant bovine β-lactoglobulin with C-terminal His6 tag) (bovine, UniProt P02754 17-178, biotinylated with Sulfo-NHS-LC-biotin (2 mol biotin : 1 mol protein) for immobilisation)
T4 construct: It was secreted to the E. coli periplasm through a pelB signal that is not part of the entry; also called recombinant BLG
T4 chain: T2 chain with Y18T

B1: D1 IgE Fab (human anti-β-lactoglobulin Fab fragment with human IgG1 subtype, derived from the D1 scFv of a human IgE scFv phage library) (Fab, V domains shown)
VH: QVSLRESGGGLVQPGRSLRLSCTASGFTFRHHGMTWVRQAPGKGLEWVASLSGSGTKTHFADSVKGRFTISRDNSNNTLYLQMDNVRDEDTAIYYCAKAKRVGATGYFDLWGRGTLVTVSS
VL: DIVMTQSPSSLSASVGDRVTITCRASQGISSRLAWYQQKPGKAPKLLIYAASSLQSGVPSRFSGSGSGTEFTLTISSLQPEDFATYYCQQYHSYPWTFGQGTKVEIKR
notes: it was made in E. coli RV308 and purified on nickel; also called D1/Fab; Fab/D1

How the values were obtained:
[1] = biological target: T1, native bovine milk β-lactoglobulin …; assay: BIAcore SPR, biotinylated nBLG on streptavidin chip, D1 IgE Fab as analyte (1.1-138.9 nM)
Protocol: (§1) BIAcore analysis of the nBLG, rBLG-His6 and its mutants.
(§2) The biotinylated BLGs were immobilised in HBS buffer (10 mM Hepes, 0.15M NaCl, 3.4 mM EDTA, 0.005% BIAcore P20 surfactant, pH 7.4) and at a concentration of 1 μg/ml onto the streptavidin biosensor chip resulting in a surface of approximately 400-500 RU. The biotinylated nBLG was immobilised only with 200 RU onto the surface of the SA-chip.

rBLG-His6 T18Y = biological target: T2, rBLG-His6 T18Y; assay: BIAcore SPR, biotinylated rBLG-His6 T18Y on streptavidin chip, D1 IgE Fab as analyte (1.1-138.9 nM)
Protocol: as §1, §2

rBLG-His6 T18Y/E45Y/L57Y = biological target: T3, rBLG-His6 T18Y/E45Y/L57Y; assay: ELISA: 1 µg biotinylated BLG on streptavidin wells, D1 IgE Fab, AFOS-conjugated goat anti-human kappa antibody, A405 after 20 min
Protocol: (§3) Biotinylated nBLG, rBLG-His6 or its mutants were immobilised on to the SA-microtitre wells.
(§4) After a 1-h incubation the wells were washed three times with PBS. The detection of the BLGs was carried out using AFOS-conjugated goat anti-human kappa antibody (Southern Biotech). Then p-nitrophenylphosphate substrate (Sigma) was added to the wells (2 mg/ml in diethanolamine buffer).

[2] = biological target: T4, rBLG-His6 (recombinant bovine …); assay: BIAcore SPR, biotinylated rBLG-His6 on streptavidin chip, D1 IgE Fab as analyte (1.1-138.9 nM)
Protocol: as §1, §2

bsa = biological target: T5, bsa (Bos taurus (bovine), UniProt P02769); assay: ELISA: D1 IgE Fab on wells with bovine serum albumin, AFOS-conjugated goat anti-human kappa antibody, A405 after 20 min
T5 construct: also called bovine serum albumin
T5 sequence (P02769 25-607 limits assumed): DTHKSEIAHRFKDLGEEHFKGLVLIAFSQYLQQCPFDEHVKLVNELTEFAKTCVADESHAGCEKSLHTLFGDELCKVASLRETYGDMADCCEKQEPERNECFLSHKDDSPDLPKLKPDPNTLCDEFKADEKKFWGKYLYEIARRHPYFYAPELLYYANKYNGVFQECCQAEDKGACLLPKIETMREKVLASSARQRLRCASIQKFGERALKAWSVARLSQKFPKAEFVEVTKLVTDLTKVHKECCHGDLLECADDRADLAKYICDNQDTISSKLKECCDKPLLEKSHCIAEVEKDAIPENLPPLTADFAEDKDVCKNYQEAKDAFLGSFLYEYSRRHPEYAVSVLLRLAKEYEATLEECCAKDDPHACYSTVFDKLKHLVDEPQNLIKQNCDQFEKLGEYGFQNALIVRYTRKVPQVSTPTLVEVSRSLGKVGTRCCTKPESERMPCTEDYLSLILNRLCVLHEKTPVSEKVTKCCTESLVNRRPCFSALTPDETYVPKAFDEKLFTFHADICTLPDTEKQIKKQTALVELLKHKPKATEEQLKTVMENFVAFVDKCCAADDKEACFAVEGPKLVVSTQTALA
Protocol: as §3, §4

[3] = biological target: T1, native bovine milk β-lactoglobulin …; assay: competitive ELISA: biotinylated BLG AB dimer on streptavidin wells, KRVG peptide incubated with the immobilised BLG, wells washed or not washed, then D1 IgE Fab (the blocked ligand); AFOS-conjugated goat anti-human kappa antibody, A405
Protocol: In competitive ELISA the biotinylated AB dimer of BLG was immobilised onto streptavidin-coated microtitre wells. First the peptide (an inhibitor) was dissolved into 0.5% BSA-PBS and then different amounts of it were incubated with the immobilised BLG. After that the wells were either washed trice with PBS or not. […] The bound antibody was detected with AFOS-conjugated goat anti-human kappa antibody.

| Binder | Ka [1] | Kd [1] | koff [1] | kon [1] | Ka (rBLG-His6 T18Y) | Kd (rBLG-His6 T18Y) | koff (rBLG-His6 T18Y) | kon (rBLG-His6 T18Y) | binding result (rBLG-His6 T18Y/E45Y/L57Y) | Ka [2] | Kd [2] | koff [2] | kon [2] | binding result (bsa) | binding result [3] |
| --- | --- | --- | --- | --- | --- | --- | --- | --- | --- | --- | --- | --- | --- | --- | --- |
| B1 | 3.7e+08 M⁻¹ | 2.7 nM | 0.0048 s⁻¹ | 1.8e+06 M⁻¹ s⁻¹ | 1.6e+06 M⁻¹ | 610 nM | 0.082 s⁻¹ | 130000 M⁻¹ s⁻¹ | no binding (tested: 1:15000 dilution of 1.6 mg/ml) | 1.2e+08 M⁻¹ | 8.5 nM | 0.0082 s⁻¹ | 961000 M⁻¹ s⁻¹ | no binding (tested: 1:15000 dilution of 1.6 mg/ml) |  |
| KRVG [peptide KRVG (from the HCDR3 of D1 IgE Fab)] |  |  |  |  |  |  |  |  |  |  |  |  |  |  | binds |
